B1: CPEB3 Ribozyme (parent)
chain: UAACAGGGGGCCACAGCAGAAGCGUUCACGUCGCAGCCCCUGUCAGAUUCUGGUGAAUCUGCGAAUUCUGCUGUAUAUCUC

Variants of B1 are the subject of this data set. In words: self-cleavage, relative activity (ratio to wild type); higher = more cleavage; in vitro, sequencing. The method, boiled down: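 Barcoded CPEB3 ribozyme mutants, produced by rounds of error-prone PCR, self-cleaved while being transcribed with T7 RNA polymerase for 5 hours at 37°C and during a subsequent 15 min DNase I step before EDTA was added. Sequencing of template-switched cDNA on Illumina gave cleaved and total reads, and DNA sequencing assigned barcodes to variants. Each variant's relative activity is its cleaved/total read fraction divided by the unmutated ribozyme's fraction, averaged across three batches. A variant needed a minimum of 5 reads.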
Turning to UAACAGGGGGCCACAGCAGAAGCGUUCACGUCGCAGCCCCCGUCAGAUUCUGGUGAAUCUGCGAAUUCUGCAGUAUAUCUC [U41C U72A], the self-cleavage turned out to be 0.79.
Next, UAACAGGGGGCCACAGCAGAAGCGUUCACGUCGCAGCCCCCGUCAGAUUCUGGUGAAUCUGCGAAUUCUGCCGUAUAUCUC [U41C U72C]: 1.11; UAACAGGGGGCCACAGCAGAAGCGUUCACGUCGCAGCCCCCGUCAGAUUCUGGUGAAUCUGCGAAUUCUGCGGUAUAUCUC [U41C U72G]: 0.92.
For UAACAGGGGGCCACAGCAGAAGCGUUCACGUCGCAGCCCCCGUCAGACUCUGGUGAAUCUGCGAAUUCUGCUGUAUAUCUC [U41C U48C], the self-cleavage stood at 0.71.
Under UAACAGGGGGCCACAGCAGAAGCGUUCACGUCGCAGCCCCCGUCAGAGUCUGGUGAAUCUGCGAAUUCUGCUGUAUAUCUC [U41C U48G] stands 0.55; under UAACAGGGGGCCACAGCAGAAGCGUUCACGUCGCAGCCCCCGUCAGAAUCUGGUGAAUCUGCGAAUUCUGCUGUAUAUCUC [U41C U48A], 0.6; under UAACAGGGGGCCACAGCAGAAGCGUUCACGUCGCAGCCCCCGUCAGAUUCUGGUGAAUCUGCGAAUUCUACUGUAUAUCUC [U41C G70A], 0.62.
As to UAACAGGGGGCCACAGCAGAAGCGUUCACGUCGCAGCCCCCGUCAGAUUCUGGUGAAUCUGCGAAUUCUUCUGUAUAUCUC [U41C G70U], the self-cleavage was found to be 0.5.
Under UAACAGGGGGCCACAGCAGAAGCGUUCACGUCGCAGCCCCCGUCAGAUUCUGGUGAAUCUGCGAAUUCUGCUUUAUAUCUC [U41C G73U] stands 1.28; under UAACAGGGGGCCACAGCAGAAGCGUUCACGUCGCAGCCCCCGUCAGAUUCUGGUGAAUCUGCGAAUUCUGCUAUAUAUCUC [U41C G73A], 1.23; under UAACAGGGGGCCACAGCAGAAGCGUUCACGUCGCAGCCCCCGUCAGAUUCUGGUGAAUCUGCGAAUUCUGCUCUAUAUCUC [U41C G73C], 1.25.
Under UAACAGGGGGCCACAGCAGAAGCGUUCACGUCGCAGCCCCCGUCAGAUUCGGGUGAAUCUGCGAAUUCUGCUGUAUAUCUC [U41C U51G] stands 0.81; under UAACAGGGGGCCACAGCAGAAGCGUUCACGUCGCAGCCCCCGUCAGAUUCAGGUGAAUCUGCGAAUUCUGCUGUAUAUCUC [U41C U51A], 1.06.
Next, UAACAGGGGGCCACAGCAGAAGCGUUCACGUCGCAGCCCCCGUCAGAUUCCGGUGAAUCUGCGAAUUCUGCUGUAUAUCUC [U41C U51C]: 1.08; UAACAGGGGGCCACAGCAGAAGCGUUCACGUCGCAGCCCCCGUCAGAUUCUGGUGAAUCUGCGAAUUCAGCUGUAUAUCUC [U41C U69A]: 0.67.
For the variant UAACAGGGGGCCACAGCAGAAGCGUUCACGUCGCAGCCCCCGUCAGAUUCUGGUGAAUCUGCGAAUUCCGCUGUAUAUCUC [U41C U69C], the self-cleavage worked out at 0.57.
Next, UAACAGGGGGCCACAGCAGAAGCGUUCACGUCGCAGCCCCCGUCAGAUUCUGGUGAAUCUGCGAAUUCGGCUGUAUAUCUC [U41C U69G]: 0.79.
Consider UAACAGGGGGCCACAGCAGAAGCGUUCACGUCGCAGCCCCCGUCAGAUUCUGAUGAAUCUGCGAAUUCUGCUGUAUAUCUC [U41C G53A], for which the self-cleavage amounted to 1.13.
Next, UAACAGGGGGCCACAGCAGAAGCGUUCACGUCGCAGCCCCCGUCAGAUUCUGCUGAAUCUGCGAAUUCUGCUGUAUAUCUC [U41C G53C]: 1.13; UAACAGGGGGCCACAGCAGAAGCGUUCACGUCGCAGCCCCCGUCAGAUUCUGGUGAAACUGCGAAUUCUGCUGUAUAUCUC [U41C U58A]: 0.47.
Consider UAACAGGGGGCCACAGCAGAAGCGUUCACGUCGCAGCCCCCGUCAGAUUCUGGUGAAGCUGCGAAUUCUGCUGUAUAUCUC [U41C U58G], for which the self-cleavage is 0.41.
For UAACAGGGGGCCACAGCAGAAGCGUUCACGUCGCAGCCCCCGUCAGAUUCUGGUGAACCUGCGAAUUCUGCUGUAUAUCUC [U41C U58C], the self-cleavage is 0.58.
Under UAACAGGGGGCCACAGCAGAAGCGUUCACGUCGCAGCCCCCGACAGAUUCUGGUGAAUCUGCGAAUUCUGCUGUAUAUCUC [U41C U43A] stands 0.72; under UAACAGGGGGCCACAGCAGAAGCGUUCACGUCGCAGCCCCCGCCAGAUUCUGGUGAAUCUGCGAAUUCUGCUGUAUAUCUC [U41C U43C], 0.46; under UAACAGGGGGCCACAGCAGAAGCGUUCACGUCGCAGCCCCCGUCAGAUUCUCGUGAAUCUGCGAAUUCUGCUGUAUAUCUC [U41C G52C], 1.12.
For UAACAGGGGGCCACAGCAGAAGCGUUCACGUCGCAGCCCCCGUCAGAUUCUAGUGAAUCUGCGAAUUCUGCUGUAUAUCUC [U41C G52A], the self-cleavage was 1.18.
Next, UAACAGGGGGCCACAGCAGAAGCGUUCACGUCGCAGCCCCCGUCAGAUUCUUGUGAAUCUGCGAAUUCUGCUGUAUAUCUC [U41C G52U]: 1.03; UAACAGGGGGCCACAGCAGAAGCGUUCACGUCGCAGCCCCCGUCAGAUUCUGGUGAAUCUGCGAAUUCUGCUGUAUAUAUC [U41C C79A]: 1.21.
Under UAACAGGGGGCCACAGCAGAAGCGUUCACGUCGCAGCCCCCGUCAGAUUCUGGUGAAUCUGCGAAUUCUGCUGUAUAUUUC [U41C C79U] stands 1.26; under UAACAGGGGGCCACAGCAGAAGCGUUCACGUCGCAGCCCCCGUCAGAUUCUGGUGAAUUUGCGAAUUCUGCUGUAUAUCUC [U41C C59U], 0.89.
Under UAACAGGGGGCCACAGCAGAAGCGUUCACGUCGCAGCCCCCGUCAGAUUCUGGUGAAUAUGCGAAUUCUGCUGUAUAUCUC [U41C C59A] stands 0.27; under UAACAGGGGGCCACAGCAGAAGCGUUCACGUCGCAGCCCCCGUCAGAUUCUGGUGAAUCUGCGAAUGCUGCUGUAUAUCUC [U41C U67G], 0.3.
For the variant UAACAGGGGGCCACAGCAGAAGCGUUCACGUCGCAGCCCCCGUCAGAUUCUGGUGAAUCUGCGAAUCCUGCUGUAUAUCUC [U41C U67C], the self-cleavage is 0.33.
Under UAACAGGGGGCCACAGCAGAAGCGUUCACGUCGCAGCCCCCGUCAGAUUCUGGUGAAUCUGCGAAUACUGCUGUAUAUCUC [U41C U67A] stands 0.53.

The values above are taken from the RNAGym collection of RNA variant scans (doi:10.1093/nar/gkz1192).
